Publication PMC5932218 (Structure (London, England : 1993), 2018)

Experiments:
[1] = target: NaV1.5 inactivation gate peptide Q1483-A1529 (human) (UniProt Q14524); assay: NMR titration
[2] = target: NaV1.6 inactivation gate peptide (aligned to NaV1.5 Q1483-A1529) (human); assay: ITC
[3] = target: NaV1.4 inactivation gate peptide (aligned to NaV1.5 Q1483-A1529) (human); assay: ITC
[4] = target: NaV1.2 inactivation gate peptide (aligned to NaV1.5 Q1483-A1529) (human); assay: ITC
[5] = target: NaV1.5 inactivation gate peptide D1471-V1532 (full-length IG, 62 residues) (human) (UniProt Q14524); assay: ITC
[6] = target: NaV1.5 inactivation gate peptide Q1483-A1529 (human) (UniProt Q14524); assay: ITC
[7] = target: NaV1.5 inactivation gate peptide Q1483-A1529 (human) (UniProt Q14524); assay: SEC-MALS
[8] = target: NaV1.5 inactivation gate peptide Q1483-A1529 (human) (UniProt Q14524); assay: SAXS
calmodulin (CaM) [9] = target: T1, calmodulin (CaM) (Homo sapiens, UniProt P0DP25); assay: Isothermal titration calorimetry of CaM binding to NaV IG peptides; conditions: for effect of truncation of the IG peptide on CaM affinity: N- and C-terminally truncated IG peptides, Ca2+ present; for stoichiometry: 1:1 binding model
[10] = Solubility of IG peptide in ITC buffers; format: physicochemical; conditions: under higher ionic strength conditions
calmodulin (CaM) [11] = target: T1, calmodulin (CaM); assay: NMR analysis of Ca2+-loaded CaM binding to wild type versus mutant IG peptides; conditions: 15N-enriched IG peptide with CaM, intermediate versus slow exchange
calmodulin (CaM) [12] = conditions: ref (15); cited from earlier work
[13] = ITC, in the presence of Ca2+, lower ionic strength buffer
[14] = ITC, 20 mM TRIS, 50 mM NaCl, 1 mM CaCl2, pH 7.4, triplicate, ± SD

NaV1.5 inactivation gate peptide D1471-V1532 (full-length IG, 62 residues) (human), sequence (Q14524 1471-1532, tags left off): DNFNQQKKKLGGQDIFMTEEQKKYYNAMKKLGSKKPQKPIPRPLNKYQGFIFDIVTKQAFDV

Substance: calmodulin (CaM), Ca2+-loaded unless stated (from UniProt P0DP25 1-149) (natural protein)
- stoichiometry N [1]: 1
- Kd [2]: 82 nM
- stoichiometry N [2]: 1.03
- stoichiometry N [3]: 1.06
- stoichiometry N [4]: 1.02
- dH [5]: -9.3 kcal/mol
- dH [6]: -5.8 kcal/mol
- stoichiometry N [7]: 1
- stoichiometry N [8]: 1

Substance: T1526: NaV1.5 IG peptide with the C terminus truncated to T1526
- effect of truncation of the IG peptide on CaM affinity (calmodulin (CaM) [9]; ITC): reduced affinity into the μM range

Substance: D1471-V1532: 62-residue peptide corresponding to the full-length NaV1.5 inactivation gate (IG)
- solubility [10]: limited solubility
- CaM interaction in the absence of Ca2+ (calmodulin (CaM) [9]; ITC, absence of Ca2+): no interaction was observed
- ΔH (calmodulin (CaM) [9]; [13]): -9.3 ± 0.1 kcal/mol
- ΔS (calmodulin (CaM) [9]; [13]): 5.2 ± 1.1 cal/mol•deg

Substance: H-GPGSQDIFMTEEQKKYYNAMKKLGSKKPQKPIPRPLNKIQGIVFDFVTQQA-OH [NaV 1.6]
- stoichiometry (calmodulin (CaM) [9]; [14]): 1.03 ± 0.01
- ΔH (calmodulin (CaM) [9]; [14]): -9.0 ± 0.2 kcal/mol
- ΔS (cal/mol•deg) (calmodulin (CaM) [9]; [14]): 2.5 ± 1.1 cal/mol•deg
- Kd (calmodulin (CaM) [9]; SD): 82 ± 20 nM

Substance: D1523: NaV1.5 IG peptide with the C terminus truncated to D1523
- effect of truncation of the IG peptide on CaM affinity (calmodulin (CaM) [9]; ITC): reduced affinity into the μM range

Substance: IG peptide double mutant: IG peptide with both the Y1494L (Site A) and F1522L (Site B) mutations
- affinity of CaM for the variant IG peptide relative to WT (calmodulin (CaM) [11]): significant reduction in the affinity

Substance: Y1494A: Y1494A site A mutant of the IG from a previous study
- effect of Y1494A site A mutation on CaM affinity (calmodulin (CaM) [12]): substantially reduced

Substance: Q1483: NaV1.5 IG peptide with the N terminus truncated to Q1483
- effect of truncation of the IG peptide on CaM affinity (calmodulin (CaM) [9]; ITC): no effect on CaM affinity

Substance: H-GPGSQDIFMTEEQKKYYNAMKKLGSKKPQKPIPRPQNKIQGMVYDLVTKQA-OH [NaV 1.4]
- stoichiometry (calmodulin (CaM) [9]; [14]): 1.06 ± 0.01
- ΔH (calmodulin (CaM) [9]; [14]): -8.8 ± 0.3 kcal/mol
- ΔS (cal/mol•deg) (calmodulin (CaM) [9]; [14]): 3.8 ± 1.3 cal/mol•deg
